Assays:
[1] = test system: HeLa Kyoto; experiment: thermal stability score vs G1/S (z-score of summed log2 fold changes over temperatures); higher = more thermally stable than in G1/S
[2] = test system: HeLa Kyoto; experiment: solubility change mitosis vs G1/S (difference of NP-40 vs SDS log2 ratios) (log2 ratio difference); higher = more soluble in mitosis
[3] = test system: HeLa Kyoto; experiment: solubility in G1/S (NP-40 vs SDS abundance) (log2 ratio); higher = more soluble; details: cell cycle stage: G1/S
[4] = test system: HeLa Kyoto; experiment: melting temperature (median over replicates), in situ; higher = more thermally stable
[5] = cell cycle stage: early G1 (4.5 h after nocodazole release)
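Throughout, for melting temperature (median over replicates), in situ: HeLa Kyoto cells synchronized by double thymidine or nocodazole block, proteins quantified by TMT10plex mass spectrometry, three independent biological replicates.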
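Throughout, for solubility change mitosis vs G1/S (difference of NP-40 vs SDS log2 ratios): synchronized HeLa Kyoto cells (double thymidine block for G1/S, nocodazole release for mitosis), protein amounts in NP-40 versus SDS lysates quantified by mass spectrometry, three biological replicates.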
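Throughout, for solubility in G1/S (NP-40 vs SDS abundance): HeLa Kyoto cells arrested at G1/S by double thymidine block, proteins quantified by TMT10plex mass spectrometry in mild NP-40 versus SDS extracts, three biological replicates.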
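Throughout, for thermal stability score vs G1/S (z-score of summed log2 fold changes over temperatures): synchronized HeLa Kyoto cells, proteins quantified by TMT10plex mass spectrometry, three biological replicates, mitosis taken 0.5 h after nocodazole release, G1/S directly after double thymidine block.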

HDGFRP2, sequence (chain, as listed by the source): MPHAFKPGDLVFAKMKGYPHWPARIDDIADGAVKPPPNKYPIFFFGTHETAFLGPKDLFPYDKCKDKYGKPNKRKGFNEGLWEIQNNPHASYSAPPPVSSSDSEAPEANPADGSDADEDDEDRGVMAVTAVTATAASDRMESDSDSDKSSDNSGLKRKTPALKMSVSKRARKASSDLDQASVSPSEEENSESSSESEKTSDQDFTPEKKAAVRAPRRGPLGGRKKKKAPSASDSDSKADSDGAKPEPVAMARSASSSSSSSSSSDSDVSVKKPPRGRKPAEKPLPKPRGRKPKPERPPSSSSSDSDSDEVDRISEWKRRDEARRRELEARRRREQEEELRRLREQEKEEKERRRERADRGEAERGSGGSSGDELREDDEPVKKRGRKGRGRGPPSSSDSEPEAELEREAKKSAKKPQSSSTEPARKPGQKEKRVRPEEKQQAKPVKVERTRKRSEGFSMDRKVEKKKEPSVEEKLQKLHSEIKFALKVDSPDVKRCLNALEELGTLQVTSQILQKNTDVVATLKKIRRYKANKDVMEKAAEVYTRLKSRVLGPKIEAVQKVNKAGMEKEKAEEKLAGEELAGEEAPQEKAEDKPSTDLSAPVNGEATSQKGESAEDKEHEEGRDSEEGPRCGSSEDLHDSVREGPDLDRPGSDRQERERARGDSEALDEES

DIP2A
thermal stability score [1, 5]: 0.00154 | thermal stability score ([1]; cell cycle stage: mitosis): 0.398 | solubility change mitosis (log2) [2]: -0.0755 | solubility in G1/S (log2) [3]: -0.104 | melting temperature ([4]; cell cycle stage: G1/S): 51.3 °C

DIP2B
thermal stability score [1, 5]: -1.32 | thermal stability score ([1]; cell cycle stage: mitosis): -2.08 | solubility change mitosis (log2) [2]: -0.12 | solubility in G1/S (log2) [3]: -0.125 | melting temperature ([4]; cell cycle stage: G1/S): 53.4 °C | melting temperature ([4]; cell cycle stage: mitosis): 53.1 °C

DMXL1
thermal stability score [1, 5]: 0.592 | thermal stability score ([1]; cell cycle stage: mitosis): 1.02 | solubility change mitosis (log2) [2]: -0.0423 | solubility in G1/S (log2) [3]: -0.236 | melting temperature ([4]; cell cycle stage: G1/S): 51.4 °C | melting temperature ([4]; cell cycle stage: mitosis): 50.9 °C

DNAJA2
thermal stability score [1, 5]: -0.554 | thermal stability score ([1]; cell cycle stage: mitosis): -2.34 | solubility change mitosis (log2) [2]: -0.191 | solubility in G1/S (log2) [3]: 0.258 | melting temperature ([4]; cell cycle stage: G1/S): 51.7 °C | melting temperature ([4]; cell cycle stage: mitosis): 51.7 °C

DNAJB6
thermal stability score [1, 5]: 0.898 | thermal stability score ([1]; cell cycle stage: mitosis): 1.65 | solubility change mitosis (log2) [2]: 0.0684 | solubility in G1/S (log2) [3]: -0.0238 | melting temperature ([4]; cell cycle stage: G1/S): 52.8 °C | melting temperature ([4]; cell cycle stage: mitosis): 49.8 °C

DNAJC13
thermal stability score [1, 5]: -0.329 | thermal stability score ([1]; cell cycle stage: mitosis): -1.08 | solubility change mitosis (log2) [2]: -0.026 | solubility in G1/S (log2) [3]: -0.463 | melting temperature ([4]; cell cycle stage: G1/S): 50.8 °C | melting temperature ([4]; cell cycle stage: mitosis): 50.3 °C

DOCK7
thermal stability score [1, 5]: 0.562 | thermal stability score ([1]; cell cycle stage: mitosis): 1.42 | solubility change mitosis (log2) [2]: -0.188 | solubility in G1/S (log2) [3]: -0.219 | melting temperature ([4]; cell cycle stage: G1/S): 48.2 °C | melting temperature ([4]; cell cycle stage: mitosis): 49 °C

DYNC1H1
thermal stability score [1, 5]: 0.0561 | thermal stability score ([1]; cell cycle stage: mitosis): 2.96 | solubility change mitosis (log2) [2]: -0.141 | solubility in G1/S (log2) [3]: -0.318 | melting temperature ([4]; cell cycle stage: G1/S): 51.8 °C | melting temperature ([4]; cell cycle stage: mitosis): 51.2 °C

EED
thermal stability score [1, 5]: 1.42 | thermal stability score ([1]; cell cycle stage: mitosis): 1.21 | solubility change mitosis (log2) [2]: 0.102 | solubility in G1/S (log2) [3]: -0.587 | melting temperature ([4]; cell cycle stage: G1/S): 49.7 °C | melting temperature ([4]; cell cycle stage: mitosis): 50.2 °C

EHBP1
thermal stability score [1, 5]: 0.393 | thermal stability score ([1]; cell cycle stage: mitosis): 0.935 | solubility change mitosis (log2) [2]: -0.0155 | solubility in G1/S (log2) [3]: 0.0745 | melting temperature ([4]; cell cycle stage: G1/S): 50.3 °C | melting temperature ([4]; cell cycle stage: mitosis): 52.4 °C

EHBP1L1
thermal stability score [1, 5]: -1.13 | thermal stability score ([1]; cell cycle stage: mitosis): 2.05 | solubility change mitosis (log2) [2]: -0.0696 | solubility in G1/S (log2) [3]: -0.0555 | melting temperature ([4]; cell cycle stage: G1/S): 49.7 °C | melting temperature ([4]; cell cycle stage: mitosis): 49.1 °C

ERP29
thermal stability score [1, 5]: 2.19 | thermal stability score ([1]; cell cycle stage: mitosis): -0.433 | solubility change mitosis (log2) [2]: 0.169 | solubility in G1/S (log2) [3]: 0.456 | melting temperature ([4]; cell cycle stage: G1/S): 54.6 °C | melting temperature ([4]; cell cycle stage: mitosis): 55.7 °C

FAM136A
thermal stability score [1, 5]: -3.91 | thermal stability score ([1]; cell cycle stage: mitosis): -5.74 | solubility change mitosis (log2) [2]: 0.0886 | solubility in G1/S (log2) [3]: 0.101 | melting temperature ([4]; cell cycle stage: G1/S): 52.9 °C | melting temperature ([4]; cell cycle stage: mitosis): 53.3 °C

FAM208A
thermal stability score [1, 5]: 0.605 | thermal stability score ([1]; cell cycle stage: mitosis): 0.529 | solubility change mitosis (log2) [2]: 0.524 | solubility in G1/S (log2) [3]: -0.847 | melting temperature ([4]; cell cycle stage: G1/S): 49.7 °C | melting temperature ([4]; cell cycle stage: mitosis): 50.2 °C

FNDC3B
thermal stability score [1, 5]: 1.73 | thermal stability score ([1]; cell cycle stage: mitosis): 3.59 | solubility change mitosis (log2) [2]: 0.0529 | solubility in G1/S (log2) [3]: -0.0341 | melting temperature ([4]; cell cycle stage: G1/S): 47.9 °C | melting temperature ([4]; cell cycle stage: mitosis): 50.5 °C

GAPDH
thermal stability score [1, 5]: -2.02 | thermal stability score ([1]; cell cycle stage: mitosis): -3.87 | solubility change mitosis (log2) [2]: -0.0817 | solubility in G1/S (log2) [3]: 0.191 | melting temperature ([4]; cell cycle stage: G1/S): 59.5 °C | melting temperature ([4]; cell cycle stage: mitosis): 60.3 °C

GCC2
thermal stability score [1, 5]: 0.337 | thermal stability score ([1]; cell cycle stage: mitosis): 1.48 | solubility change mitosis (log2) [2]: -0.00143 | solubility in G1/S (log2) [3]: 0.461 | melting temperature ([4]; cell cycle stage: G1/S): 48.9 °C | melting temperature ([4]; cell cycle stage: mitosis): 49.4 °C

GLUD1
thermal stability score [1, 5]: 2.33 | thermal stability score ([1]; cell cycle stage: mitosis): -0.967 | solubility change mitosis (log2) [2]: -0.0663 | solubility in G1/S (log2) [3]: 0.197 | melting temperature ([4]; cell cycle stage: G1/S): 57.5 °C | melting temperature ([4]; cell cycle stage: mitosis): 57.2 °C

GNL2
thermal stability score [1, 5]: 4.89 | thermal stability score ([1]; cell cycle stage: mitosis): 6.37 | solubility change mitosis (log2) [2]: 1.08 | solubility in G1/S (log2) [3]: -2.3 | melting temperature ([4]; cell cycle stage: G1/S): 51.2 °C | melting temperature ([4]; cell cycle stage: mitosis): 52.7 °C

GTF3C1
thermal stability score [1, 5]: 1.22 | thermal stability score ([1]; cell cycle stage: mitosis): 3.47 | solubility change mitosis (log2) [2]: -0.00776 | solubility in G1/S (log2) [3]: -0.378 | melting temperature ([4]; cell cycle stage: G1/S): 47.5 °C | melting temperature ([4]; cell cycle stage: mitosis): 49.4 °C

HDGFRP2
thermal stability score [1, 5]: -0.27 | thermal stability score ([1]; cell cycle stage: mitosis): -1.13 | solubility change mitosis (log2) [2]: 0.275 | solubility in G1/S (log2) [3]: -0.376 | melting temperature ([4]; cell cycle stage: G1/S): 54.3 °C | melting temperature ([4]; cell cycle stage: mitosis): 53.9 °C

HECTD1
thermal stability score [1, 5]: 0.479 | thermal stability score ([1]; cell cycle stage: mitosis): -0.0167 | solubility change mitosis (log2) [2]: -0.16 | solubility in G1/S (log2) [3]: -0.212 | melting temperature ([4]; cell cycle stage: G1/S): 50.4 °C | melting temperature ([4]; cell cycle stage: mitosis): 50.4 °C

From the supplement of paper PMC5998384
